Laboratory results: IntAct's records for PubMed 15618422

B1: BTB/POZ and MATH domain-containing protein 1 (Arabidopsis thaliana (Mouse-ear cress)), Q8L765 (parent)
chain: MGTTRVCSEVSSGSSKSLSQSLTVSTSTTETVNGFHEFKICGYSLAKGVGVGKYVASDTFMVGGYSWAIYFYPDGKSPEDNSSYVSLFIALASEGADVRALFELTLVDQSGNGKHKVHSHFGRALDSGPYTLKYRGSMWGYKRFFRRSSLESSDYLKENSLLVRCRVGVVKSVTEGPRYYNIPVPVSNLGQQLGNLLESGKGCDVVFQVDGETFNAHKLVLATRSPVFNAQLFGPLGDRNTKCITIEDMEAPIFKVLLHFIYWDELPDMQELIGTDSTLASTLVAQHLLAAADRYALERLKAICESKLCEGVAINTVATTLALAEQHHCLQLKAVCLKFVALPENLKAVMQTDGFDYLKESCPSLLTELLQYVARLSEHSVIVSGHRKEIFADGCDASGRRVKPRLH
partner: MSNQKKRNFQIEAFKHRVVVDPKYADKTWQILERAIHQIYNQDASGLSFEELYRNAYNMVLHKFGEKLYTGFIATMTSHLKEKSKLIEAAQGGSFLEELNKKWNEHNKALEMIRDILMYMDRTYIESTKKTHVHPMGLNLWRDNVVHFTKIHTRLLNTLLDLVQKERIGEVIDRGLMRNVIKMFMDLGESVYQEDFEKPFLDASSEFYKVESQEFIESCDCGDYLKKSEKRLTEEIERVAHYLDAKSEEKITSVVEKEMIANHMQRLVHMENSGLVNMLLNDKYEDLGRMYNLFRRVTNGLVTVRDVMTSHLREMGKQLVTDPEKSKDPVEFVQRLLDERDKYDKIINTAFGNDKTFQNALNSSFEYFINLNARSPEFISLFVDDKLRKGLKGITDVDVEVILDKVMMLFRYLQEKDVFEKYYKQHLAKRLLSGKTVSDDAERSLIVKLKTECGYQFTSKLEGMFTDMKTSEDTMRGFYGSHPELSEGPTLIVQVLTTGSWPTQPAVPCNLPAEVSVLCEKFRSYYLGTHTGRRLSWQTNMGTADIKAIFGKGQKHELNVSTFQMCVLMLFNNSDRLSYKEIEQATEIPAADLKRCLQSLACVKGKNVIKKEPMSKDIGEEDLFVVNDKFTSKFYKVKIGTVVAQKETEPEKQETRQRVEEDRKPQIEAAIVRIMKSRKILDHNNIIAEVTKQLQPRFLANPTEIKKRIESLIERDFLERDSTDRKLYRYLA
B2: Cullin-3A (Arabidopsis thaliana (Mouse-ear cress)), Q9ZVH4 (parent)
chain: B1 partner
partner: B1 chain

Variants of: B1
Settings: with cul3a_arath CUL3A, Q9ZVH4

effect of a mutation on the interaction	Variant
decreasing interaction	D293A
decreasing interaction	Y295A
decreasing interaction	D204A

Variants of: B2
Settings: with bpm1_arath BPM1, Q8L765

effect of a mutation on the interaction	Variant
decreasing interaction	S48A;F49A
